Laboratory results reported in patent US20090298755A1 (NEW ENGLAND MEDICAL CENTER HOSPITALS, published 2009).
Ends that are not written are not given here.

Tests used:
µ receptor (rat brain) = target: T1, µ receptor (rat brain) (rat, UniProt P33535 1-398); experiment: radioligand competition, [3H]DAMGO on crude rat brain plasma membranes, 4 C, 90 min, filtration
T1 construct: whole, on cells; Native receptor in crude rat brain plasma membrane homogenate, not on intact cells; also called µ opioid receptor; opioid receptor
T1 sequence (P33535 whole entry): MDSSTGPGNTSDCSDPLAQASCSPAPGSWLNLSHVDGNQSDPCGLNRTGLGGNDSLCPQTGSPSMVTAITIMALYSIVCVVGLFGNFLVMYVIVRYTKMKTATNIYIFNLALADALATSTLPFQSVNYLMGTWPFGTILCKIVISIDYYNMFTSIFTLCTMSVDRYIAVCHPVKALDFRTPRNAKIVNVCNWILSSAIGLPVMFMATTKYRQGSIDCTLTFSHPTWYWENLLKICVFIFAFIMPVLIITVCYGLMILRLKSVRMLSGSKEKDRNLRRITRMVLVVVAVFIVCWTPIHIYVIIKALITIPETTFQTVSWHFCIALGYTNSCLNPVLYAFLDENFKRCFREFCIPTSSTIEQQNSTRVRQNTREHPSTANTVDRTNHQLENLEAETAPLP
Method: (§1) For binding assays to opioid receptors, frozen rat brains (−80° C.) were homogenized in 40 volumes of standard Tris buffer (50 mM Tris HCl (pH 7.4), 0.2 mg/ml BSA, 2.5 mM EDTA, 40 μg/m bacitracin, 30 μg/ml bestatin and 5 mM MgCl₂) and centrifuged at 15,000×g for 20 minutes. 100 mM NaCl was added to the buffer, in order to remove endogenous ligands, and the centrifugation was repeated. After a wash with standard buffer, the membrane preparation was finally resuspended in 10 volumes of incubation buffer (standard buffer with 4 μg/ml leupeptin and 2 μg/ml chymostatin). […] The brain homogenates were used on the day of preparation.
After incubation the samples were filtered on a Brandell-Harvester using an appropriate GF/B filter soaked in 50 mM Tris HCl (pH 7A) and 0.5% PEI. Scintillation fluid was added to the filters in order to solubilize the membranes, and a beta-counter was used to quantify radioactivity.

NK1 receptor (rat brain) = target: T2, NK1 receptor (rat brain) (rat, UniProt P14600 1-407); experiment: radioligand competition, [125I]BH-SP on crude rat brain plasma membranes, room temperature, 75 min, filtration
T2 construct: whole, on cells; Native receptor in crude rat brain plasma membrane homogenate, not on intact cells; also called SP receptor
T2 sequence (P14600 whole entry): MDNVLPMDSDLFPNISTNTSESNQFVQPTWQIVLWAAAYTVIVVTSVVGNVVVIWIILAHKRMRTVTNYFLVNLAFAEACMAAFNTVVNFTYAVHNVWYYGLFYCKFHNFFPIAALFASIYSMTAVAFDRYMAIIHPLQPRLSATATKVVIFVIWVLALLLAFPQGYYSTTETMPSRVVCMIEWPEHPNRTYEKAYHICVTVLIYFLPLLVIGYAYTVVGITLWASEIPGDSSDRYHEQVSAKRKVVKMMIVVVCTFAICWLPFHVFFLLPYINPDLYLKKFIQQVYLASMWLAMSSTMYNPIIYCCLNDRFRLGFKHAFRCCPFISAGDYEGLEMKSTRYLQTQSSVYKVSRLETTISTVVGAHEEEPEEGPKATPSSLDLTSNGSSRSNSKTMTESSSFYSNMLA
Method: as §1
After filtration, the radioactivity was determined on a gamma-counter.

B1: ESP7 (peptide)
peptide: YPFFGLM-NH2
notes: Chimera of endomorphin-2 at the N-terminus and SP(7-11) at the C-terminus; also called chimeric peptide ESP7; Tyr-Pro-Phe-Phe-Gly-Leu-Met-NH2
B1 was tested, and the Kd (µ receptor (rat brain)) was ~300 nM and the Kd (NK1 receptor (rat brain)) was ~200 nM.
